Laboratory results taken from patent US12649778.

Target: Peptide 1593 (…) (Mycobacterium tuberculosis)
Assay: SPR (Biacore), IgG amine-coupled, peptide as analyte

B1: 65D3 mutant IgG variant 2 (S55W-VH + S57T-VL) (antibody)
heavy: QSLEESGGRLVTPGGSLTLTCTVSGFSLSTHDISWVRQAPGKGLEWIGVIARRGWTYYASWAKGRFTISKTSTTVDLKITSPTIEDTATYFCAREEFDFWGQGTLVTVSSGQPKAPSVFPLAPCCGDTPSSTVTLGCLVKGYLPEPVTVTWNSGTLTNGVRTFPSVRQSSGLYSLSSVVSVTSSSQPVTCNVAHPATNTKVDKTVAPSTCSKPTCPPPELLGGPSVFIFPPKPKDTLMISRTPEVTCVVVDVSQDDPEVQFTWYINNEQVRTARPPLREQQFNSTIRVVSTLPIAHQDWLRGKEFKCKVHNKALPAPIEKTISKARGQPLEPKVYTMGPPREELSSRSVSLTCMINGFYPSDISVEWEKNGKAEDNYKTTPAVLDSDGSYFLYSKLSVPTSEWQRGDVFTCSVMHEALHNHYTQKSISRSPGK
light: AVLTQTASPVSAAVGGTVTISCQSSQSVYNNKELSWFQQKPGQPPKLLISYASTLATGVPSRFKGSGSGTQFTLTISDLECDDAATYYCLGGYASTIDMWAFGGGTEVVVKGDPVAPTVLIFPPAADQVATGTVTIVCVANKYFPDVTVTWEVDGTTQTTGIENSKTPQNSADCTYNLSSTLTLTSTQYNSHKEYTCKVTQGTTSVVQSFNRGDC
Kd: 3.27 nM | koff: 0.000393 s⁻¹ | kon: 120000 M⁻¹ s⁻¹
